Source: patent US20230002480A1

What was measured:
Experiment in all cases: cell-based or functional assay
[1] = target: HIV-1 Env of pseudovirus CNE8 (clade CRF01_AE) (HIV-1)
[2] = target: HIV-1 Env of pseudovirus MS208A1 (HIV-1)
[3] = target: HIV-1 Env of pseudovirus 1056_10_TA11_1826 (clade B (T/F)) (HIV-1)
[4] = target: HIV-1 Env pseudovirus 231966.c02 (HIV-1)
[5] = target: HIV-1 Env pseudovirus C4118.c09 (HIV-1)
[6] = target: HIV-1 Env pseudovirus R1166.c01 (HIV-1)
[7] = target: MuLV pseudovirus (Neg. Control) (MuLV)
[8] = target: HIV-1 Env pseudovirus CNE5 (HIV-1)
[9] = target: HIV-1 Env of pseudovirus 1394C9G1 (Rev-) (HIV-1)

Substance: 10-1074 (antibody)
- IC50, titer in TZM.bl cells [1]: > 50 µg/mL
- IC80, titer in TZM.bl cells [1]: > 50 µg/mL

Substance: N49P7 (antibody)
- neutralization IC50 [2]: 0.12 µg/mL
- neutralization IC80 [2]: 0.479 µg/mL
- neutralization MPI [2]: 100

Substance: N49P7.1 (antibody)
- neutralization IC50 [2]: 0.12 µg/mL
- neutralization IC80 [2]: 0.431 µg/mL
- neutralization MPI [2]: 100

Substance: N49P7.2 (antibody)
- IC50 [3]: 0.114 µg/mL
- IC80 [3]: 0.771 µg/mL
- MPI [3]: 100

Substance: N49P9 (antibody)
- IC50 [4]: 0.074 µg/mL
- IC80 [4]: 0.244 µg/mL
- MPI [4]: 100
- IC50 [5]: 0.072 µg/mL
- IC80 [5]: 0.2 µg/mL
- MPI [5]: 100
- IC50 [6]: 0.064 µg/mL
- IC80 [6]: 0.223 µg/mL
- MPI [6]: 100
- IC50 [7]: > 50 µg/mL
- IC80 [7]: > 50 µg/mL
- MPI [7]: 13

Substance: N49P9.1 (antibody)
- IC50 [4]: 0.067 µg/mL
- IC80 [4]: 0.237 µg/mL
- MPI [4]: 100
- IC50 [5]: 0.062 µg/mL
- IC80 [5]: 0.218 µg/mL
- MPI [5]: 100
- IC50 [8]: 0.183 µg/mL
- IC80 [8]: 0.641 µg/mL
- MPI [8]: 100
- IC50 [6]: 0.073 µg/mL
- IC80 [6]: 0.232 µg/mL
- MPI [6]: 100

Substance: N49P11 (antibody)
- IC50 [3]: 4.77 µg/mL
- IC80 [3]: 14.2 µg/mL
- MPI [3]: 100

Substance: N49P18.1 (antibody)
- IC50 [3]: 30.5 µg/mL
- IC80 [3]: > 50 µg/mL
- MPI [3]: 62

Substance: N49P19 (antibody)
- IC50 [4]: 0.653 µg/mL
- IC80 [4]: 4.55 µg/mL
- MPI [4]: 100
- IC50 [5]: 0.386 µg/mL
- IC80 [5]: 1.36 µg/mL
- MPI [5]: 100
- IC50 [8]: 0.748 µg/mL
- IC80 [8]: 3.29 µg/mL
- MPI [8]: 100
- IC50 [6]: 0.629 µg/mL
- IC80 [6]: 2.69 µg/mL
- MPI [6]: 100
- IC50 [7]: > 50 µg/mL
- IC80 [7]: > 50 µg/mL
- MPI [7]: 0

Substance: VRC01 (antibody)
- IC50, titer in TZM.bl cells [9]: 0.36 µg/mL
- IC80, titer in TZM.bl cells [9]: 1.28 µg/mL
